# Data: publication PMC11278340
# T1: murine CCL17 (Mus musculus, UniProt Q9WUZ6 24-93)
# T1 sequence: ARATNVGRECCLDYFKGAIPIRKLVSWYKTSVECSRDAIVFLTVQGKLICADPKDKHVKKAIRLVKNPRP
# T2: human CCL22 (Homo sapiens, UniProt O00626 25-93)
# T2 sequence: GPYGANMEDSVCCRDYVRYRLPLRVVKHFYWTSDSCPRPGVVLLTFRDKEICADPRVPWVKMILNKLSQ
# T3: murine CCL22 (Mus musculus, UniProt O88430 25-92)
# T3 sequence: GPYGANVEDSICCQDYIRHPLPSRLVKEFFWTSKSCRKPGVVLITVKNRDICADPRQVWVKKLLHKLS
# B1: AJ82 (ssDNA)
# DNA: GCTGTGTGACTCCTGCAAGCTGTGGAGTCGTCGTTCGGGTTATGGGGGATGGGGTTGAGTGGCAGCTGTATCTTGTCTCC
# B2: AJ102 (ssDNA)
# DNA: GCTGTGTGACTCCTGCAATAGGCGAGTGTGGGTGGGTGGGCGTTCTCAGTGGTTCTCAGTAGCAGCTGTATCTTGTCTCC
# B3: AJ102.29 (ssDNA)
# DNA: TAGGCGAGTGTGGGTGGGTGGGCGTTCTC
# Key:
# murine CCL17 = target: T1, murine CCL17; assay: ELONA
# human CCL17 = human CCL17 (Homo sapiens, UniProt Q92583 24-94); assay: ELONA
# human CCL22 = target: T2, human CCL22; assay: ELONA
# murine CCL22 [1] = target: T3, murine CCL22; assay: flow cytometry on CCL22 beads
# murine CCL22 [2] = target: T3, murine CCL22; assay: SPR
# Sequence of human CCL17 (Q92583 24-94): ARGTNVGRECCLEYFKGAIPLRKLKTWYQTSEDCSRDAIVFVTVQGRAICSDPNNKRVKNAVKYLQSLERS
Binder,binding result (murine CCL17),binding result (human CCL17),binding result (human CCL22),Kd (murine CCL22 [1]),Kd (murine CCL22 [2])
B1,no binding,no binding,no binding,146 nM,24.8 nM
B2,no binding,no binding,no binding,147 nM,10.7 nM
B3,,,,63.6 nM,
